Results from patent US11840557B2, “Wnt7 variants capable of activating g-protein coupled receptor (Gpr)124/Reck/frizzled/lipoprotein receptor-related protein (LRP)-mediated Wnt signaling” (UNIVERSITÉ LIBRE DE BRUXELLES, priority 2018, dated 2023).

What was measured:
all 10 Fz genes = assay: STF luciferase assay after co-transfection with all 10 Fz genes, no Gpr124/Reck; format: cell-based; details: in the absence of Gpr124/Reck
Description: Cells were plated into 96-well plates and transfected after 24 h in triplicate with Lipofectamine 2000 (Invitrogen, Carlsbad, Calif.). The amount of plasmid DNA transfected per well was optimized for each expression vector: Renilla luciferase (0.5 ng), Wnt (20 ng), Fz (5 ng), LRP (2.5 ng), Gpr124 (10 ng), Reck (10 ng) unless otherwise indicated. The total amount of DNA was adjusted to 100 ng per well with the empty pCS2 vector. Cells were harvested in passive lysis buffer (E1960, Promega, Wisconsin) and the activities of the Firefly and Renilla luciferases were measured sequentially using the Dual-Luciferase Reporter Assay system (E1960, Promega, Madison, Wis.) 48 h post-transfection.

zebrafish zygote = format: in vivo, Danio rerio; details: injection in zygote, 3 dpf larvae
Description: (§1) The following splice-blocking morpholino (MOs) (GeneTools, Eugene, OR) were injected into embryos at the one-cell stage: wnt7aa ([…], 6 ng) (SEQ ID NO.: 123). Synthetic mRNAs were transcribed from pCS2 plasmids after NotI digestion using the mMessage mMachine SP6 Kit (Ambion, Carlsbad, CA) and injected into one-cell stage zebrafish embryo. For Xenopus laevis microinjection, 15 pg of wnt7a or wnt7a^K190A or wnt7a^1-278 mRNA were injected into one ventral blastomere of the four-cell stage embryo.
(§2) zebrafish embryos were imaged with an LSM710 confocal microscope and images were processed in ImageJ. Images of zebrafish development phenotypes were taken on Leica M165 FC. Xenopus larvae were imaged with an Olympus SZX16.

wnt7aa morphants = assay: Trunk DRG rescue in wnt7aa morphant zebrafish larvae; format: in vivo, Danio rerio; details: 100 pg mRNA injection, 72 hpf
Description: Zebrafish (Danio rerio) were raised and handled under standard conditions following the rules of the State of Belgium (protocol approval number: CEBEA-IBMM-2017-22:65). The following line was used: Tg(−17.0neurog1:EGFP)^w61 (McGraw et al., J. Neurosci 28(47):12558-69 (2008)).
as §1, §2

[1] = tested on: Wnt7aa^−/− mutant zebrafish; assay: Transgenic endothelial expression (kdrl promoter) in Wnt7aa−/− zebrafish: hindbrain CtAs and GLUT1 staining; format: in vivo, Danio rerio; details: 60 hpf embryos
From the text: (A) Dorsal views of the cerebral vasculatures of 60 hpf WT or Wnt7aa^−/− Tg(kdrl:EGFP) embryos. In Wnt7a^−/− mutants, the intracerebral CtAs are lacking. Wnt7, Wnt7a^K190A or Wnt7a^1-278 were transiently expressed in the endothelium of Wnt7aa^−/− embryos under the control of an endothelial-specific kdrl (Vascular endothelial growth factor receptor kdr-like) promoter. The Wnt7 ligands were expressed as a biscistronic construct with BFP (Blue Fluorescent Protein) used as transgenesis marker. In contrast to uninjected embryos, Wnt7, Wnt7a^K190A or Wnt7a^1-278 restore hindbrain CtAs formation in Wnt7aa^−/− mutants as quantified in (B). (C) Anti-GLUT1 staining of the CtAs after transgenic expression of Wnt7, Wnt7a^K190A and Wnt7a^1-278 in 60 hpf Wnt7aa^−/− embryos. Transgenic expression was achieved as in (A).
Mouse Wnt7, Wnt7a^K190A and Wnt7a^1-278 were transiently expressed in the endothelium of Wnt7aa^−/− embryos under the control of an endothelial-specific kdrl (Vascular endothelial growth factor receptor kdr-like) promoter. The Wnt7 ligands were expressed as a biscistronic construct with BFP (Blue Fluorescent Protein) as transgenesis marker.

B1: Wnt7a^K190A: single-residue variant of full-length mWnt7a (precursor numbering); Gpr124/Reck-selective agonist (protein)
chain: LGASIICNKIPGLAPRQRAICQSRPDAIIVIGEGSQMGLDECQFQFRNGRWNCSALGERTVFGKELKVGSREAAFTYAIIAAGVAHAITAACTQGNLSDCGCDKEKQGQYHRDEGWKWGGCSADIRYGIGFAKVFVDAREIKQNARTLMNLHNNEAGRAILEENMKLECKCHGVSGSCTTKTCWTTLPQFRELGYVLKDKYNEAVHVEPVRASRNKRPTFLKIKKPLSYRKPMDTDLVYIEKSPNYCEEDPVTGSVGTQGRACNKTAPQASGCDLMCCGRGYNTHQYARVWQCNCKFHWCCYVKCNTCSERTEMYTCK
modifications: human Wnt7a variant K159A
With B1 as the molecule, how does the “signaling through any Fz” value (all 10 Fz genes) read?
The value was “failed to signal through any Fz”.

What about the “mRNA dose well tolerated without posteriorizing or gross anatomical alterations” value (zebrafish zygote) of the same molecule?
The value was at most 100 pg.

What about the DRG rescue (wnt7aa morphants) of the same molecule?
The DRG rescue was “significant DRG rescues”.

And the “blood-brain barrier (GLUT1 expression)” value ([1]; anti-GLUT1 staining of CtAs)?
The value was “restored blood-brain barrier”.

And the “brain angiogenesis / hindbrain CtAs formation” value ([1]; transient endothelial expression)?
Its value is “triggered GPR124/RECK-dependent brain angiogenesis”.
